Data set [1] deals with hepatocellular carcinoma. Particulars: systemic chemotherapy, HCC patients; cited from earlier work.
For data set [2], the target named is T1, recombinant human LRP1 cluster II (Homo sapiens, UniProt Q07954).
T1 construct: R&D Systems, amino acids 786-1165, with C-terminal Fc tag; purchased R&D Systems
T1 sequence (Q07954 805-1184): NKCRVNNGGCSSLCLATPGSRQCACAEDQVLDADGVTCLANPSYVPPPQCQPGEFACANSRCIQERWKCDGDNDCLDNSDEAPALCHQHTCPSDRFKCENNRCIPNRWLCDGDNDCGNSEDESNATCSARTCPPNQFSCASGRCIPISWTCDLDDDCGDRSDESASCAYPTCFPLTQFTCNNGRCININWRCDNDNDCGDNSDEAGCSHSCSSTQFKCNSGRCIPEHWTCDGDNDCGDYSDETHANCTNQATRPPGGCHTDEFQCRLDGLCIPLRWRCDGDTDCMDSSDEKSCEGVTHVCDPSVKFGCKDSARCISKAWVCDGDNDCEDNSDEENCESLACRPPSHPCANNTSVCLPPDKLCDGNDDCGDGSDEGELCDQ
Briefly: Solid phase binding assay, affinity for LRP1 cluster II. The text has this: (§1) Control wells contained no added inhibitor. […] Excess HRP conjugate was removed and wells washed. Color was developed using TMB reagents (BioRad, Hercules, Calif.).

The conditions of data set [3]: rat, in vivo, iv; cited from earlier work.
For data set [4] the following is noted: in vivo, iv; cited from earlier work.
In data set [5] the target is T2, LRP1-C2 (Homo sapiens, UniProt Q07954).
T2 sequence (Q07954 805-1184): T1 sequence (Q07954 805-1184)
Briefly: Inhibition of RAP d3 binding to LRP1-C2, solid phase assay (streptavidin multimerization). Details: R&D Systems, amino acids 786-1165, with C-terminal Fc tag; purchased R&D Systems.
Excerpt: as §1

In data set [6] the target is T2, LRP1-C2. Briefly: Inhibition of RAP d3 binding to LRP1-C2, solid phase assay (anti-biotin antibody, preincubation with receptor). The note with it: fit parameter of inhibition curve, 2 nM RAP d3.
Description: Briefly, recombinant human LRP1 cluster II (R&D Systems, amino acids 786-1165, with C-terminal Fc tag, 1 μg) was used to coat Nunc MAXISORP™ 96-well plates in TBS pH 8 supplemented with 5 mM CaCl2 (TBSC) overnight at 4° C. Wells were washed with TBSC and blocked with TBSC containing 2% BSA.
Since the ligand binding competence of CR pairs requires calcium, identical binding reactions were done in the presence of 50 mM EDTA to provide a measure of non-specific binding. Control wells contained no added inhibitor. Wells were washed with TBS supplemented with 5 mM CaCl2 and 0.05% Tween-20. Bound ligand was detected with either anti-5-peptide-HRP conjugate (Abcam) or anti-α-2-macroglobulin-HRP conjugate (Abcam). Excess HRP conjugate was removed and wells washed. Color was developed using TMB reagents (BioRad, Hercules, Calif.). Absorption at 450 nm was measured with a microplate spectrophotometer (Molecular Devices, Palo Alto).
The same procedure was performed for the controls; peptide alone, antibody alone and full-length RAP.
Data set [7] concerns wild-type CHO-K1 cells. Briefly: MTT cell viability after toxin delivery, wild-type CHO-K1. Particulars: 48 hours.
Description: (§2) In order to determine whether a RAP peptide conjugated to a cytotoxic agent could effectively deliver the toxin to the cell and initiate cell death, an in vitro assay was used to assess delivery of toxin via the RAP-LRP1 binding and internalization pathway.
(§3) Wild-type and LRP1-deficient CHO-K1 cells were grown in BioWhittaker Ultra-CHO supplemented with 5% fetal bovine serum. Cells were seeded in 12-well plates 48 hours prior to the experiment. […] The mixture was diluted into growth media to 100 nM and added to wells in duplicate. […] Cells were incubated for 48 hours at 37° C., 5% CO2 in a humidified chamber. Cell viability for each treatment condition was determined with an MTT assay kit (Invitrogen, San Diego).
Data set [8] concerns LRP1-deficient CHO-K1 cells. The data set is described as follows: MTT cell viability after toxin delivery, LRP1-deficient CHO-K1. The note with it: LRP-deficient CHO-K1, 1 μM, 48 hours.
Description: as §2, §3
The conditions of data set [9]: in vivo.
For data set [10] the following is noted: in vivo, iv; cited from earlier work. The source holds these as a separate data set.

Bridge positions count the residues as written; N and C are the ends. * marks the point of attachment. Biotin = O=C1N[C@H]2[C@H](CS[C@H]2CCCCC(=O)*)N1

`COc1cccc2c1C(=O)c1c(O)c3c(c(O)c1C2=O)C[C@@](O)(C(=O)CO)C[C@@H]3O[C@H]1C[C@H](N)[C@H](O)[C@H](C)O1` [adriamycin]: the response rates in data set [1] is 15-20%.

On to “Biotin-GGSGGCEAKIEKHNHYQKQLEIAHEKLRHAESVGDGERVSRSREKHALLEGRTKELGYTVKKHGC (disulfide 6-65 (inferred)) [mRAP-14c]”, for which, in [2], the Kd (commonly the free concentration of one partner at which half of the binding sites on the other are occupied at equilibrium, for simple one-to-one binding) was around 21 nM.

On to “Biotin-GGSGGCGKHFEAKIEKHNHYQKQLEIAHEKLRHAESVGDGERVSRSREKHALLEGRTKELGYTVKKHLQDGC (disulfide 6-72 (inferred)) [mRAP-8c]”, for which, in [2], the Kd was around 4 nM.

In the case of “RAP: mature full-length receptor-associated protein, 323 amino acids (SEQ ID NO: 1); Tables 3 and 4, b198”, in data set [3], the “accumulation in heart, brain, muscle or kidney” value was < 1 % of injected dose and the circulating half-life result was “less than a minute”. In [4], the toxicity entry was “no measurable toxicity”. For the same compound, the “fold better EC50 than peptide assembled on streptavidin” value in [5] is “about 10 fold”. This compound also displayed a Maximum binding in data set [5] (fit parameter of inhibition curve, 2 nM RAP d3) of 0.29. Besides, the Maximum binding in data set [6] turned out to be 0.74.

In the case of Saporin [reference compound], the “loss of viable cells” value in data set [7] (wild-type CHO-K1, 1 μM) is “about 55%”; in [8] it was around 35%.

Regarding “biotin-GGSGGCGFREELKHFEAKIEKHNHYQKQLEIAHEKLRHAESVGDGERVSRS REKHALLEGRTKELGYTVKKHLQDLSGGC [mini-RAPc]”, in [7] (100 nM, cell type not specified (wild-type and LRP1-deficient CHO-K1 tested)), the “effect on cell survival” value is “no significant effect on cell survival”.

As for “streptavidin: streptavidin alone, control (35S-labeled in bio-distribution studies) [reference compound]”, in data set [9], the “uptake in the woodchuck liver, mean” value amounted to 435 PSL/mm^2. Moreover, the tissue accumulation result in data set [10] is on record as “accumulate in kidney, but not significantly in liver”. In [5] (in words), the “inhibitory effect on RAP d3 binding” value is “no inhibitory effect”.

The record behind these values is US8795627B2, “Treatment of liver disorders by administration of RAP conjugates” (Raptor Pharmaceuticals Inc., priority 2007, dated 2014).
